In assay [1] the target is T1, Claudin 18.2 (CLDN18.2), expressed on CHOS-CLDN 18.2 / HEK293-CLDN 18.2 / HCC827-CLDN 18.2 cells (human, UniProt P56856-2 1-261).
T1 construct: whole, on cells; The species is not repeated for the CHOS-CLDN 18.2 cells; also called claudin-18A2
The assay can be described thus: FACS, CHOS-CLDN18.2 cells, 0.005 µg/ml. For orientation: In flow cytometry, cells or beads pass a laser one at a time.
Procedure: (§1) The initial concentration of the antibody was 20 μg/ml, it was diluted at 1:4, and incubated at 4° C. for 60 min.

Assay [2] has as its target T1, Claudin 18.2 (CLDN18.2), expressed on …. The assay can be described thus: FACS, CHOS-CLDN18.2 cells.
Procedure: as §1
Assay [3] has the same target. The assay can be described thus: FACS, MFI on CHOS-CLDN18.2 over MFI on CHOS-CLDN18.1, 10 µg/ml.
Procedure: (§2) The initial concentration of the antibody was 20 μg/mkit was diluted at 1:4, and incubated at 4° C. for 60 min.
The target is the same in assay [4]. The assay can be described thus: FACS, CHOS-CLDN18.2 cells, 5 µg/ml.
Procedure: as §1
For assay [5] the target is unchanged. The assay can be described thus: FACS, CHOS-CLDN18.2 cells, 0 µg/ml (background).
Procedure: as §1
Assay [6] has the same target. Description: FACS, CHOS-CLDN18.2 cells, 0.313 µg/ml.
Procedure: as §1
Assay [7] shares this target. Description: FACS, CHOS-CLDN18.2 cells, 10 µg/ml.
Procedure: as §2
For assay [8] the target is unchanged. Description: FACS, CHOS-CLDN18.2 cells, 1.250 µg/ml.
Procedure: as §1
The target is the same in assay [9]. The assay can be described thus: FACS, CHOS-CLDN18.2 cells, 0.020 µg/ml.
Procedure: as §1
Assay [10] has the same target. The assay can be described thus: FACS, CHOS-CLDN18.2 cells, 0.078 µg/ml.
Procedure: as §1
For assay [11] the target is unchanged. The assay can be described thus: FACS, CHOS-CLDN18.2 cells, 20 µg/ml.
Procedure: as §1
For assay [12] the target is unchanged. The assay can be described thus: FACS, CHOS-CLDN18.2 cells, 0.313 µg/ml. The source holds these as a separate data set.
Procedure: as §1
Assay [13] has the same target. Description: FACS, CHOS-CLDN18.2 cells, 0.020 µg/ml. This is another data set of the same source.
Procedure: as §1
Assay [14] has the same target. Description: FACS, CHOS-CLDN18.2 cells, 1.250 µg/ml. The source holds these as a separate data set.
Procedure: as §1
Assay [15] has the same target. Description: FACS, CHOS-CLDN18.2 cells, 0.005 µg/ml. This is another data set of the same source.
Procedure: as §1
Assay [16] shares this target. Description: cell-based or functional assay.
Assay [17] shares this target. The assay can be described thus: FACS, CHOS-CLDN18.2 cells, 20 µg/ml. The source holds these as a separate data set.
Procedure: as §1
Assay [18] shares this target. Description: FACS, CHOS-CLDN18.2 cells, 0.078 µg/ml. This is another data set of the same source.
Procedure: as §1
The target is the same in assay [19]. Description: FACS, CHOS-CLDN18.2 cells. The source holds these as a separate data set.
Procedure: as §1
For assay [20] the target is unchanged. Description: FACS, CHOS-CLDN18.2 cells, 5 µg/ml. The source holds these as a separate data set.
Procedure: as §1
For assay [21] the target is unchanged. The assay can be described thus: FACS, CHOS-CLDN18.2 cells, 0 µg/ml (background). The source holds these as a separate data set.
Procedure: as §1

Residue numbers refer to the chain shown, from its start. Like-named read-outs stand apart in the source and are kept apart here.

B1: QP201202 (antibody, human IgG1, V domains shown)
VH: EVQLQQSGPELVKPGASVKMSCKASGYTFTNYFVHWVKQKPGQGLEWIGYINPYNDDTKYNEKFKGKATLTSDKSSSTAYMDLSSLTSEDSAVYYCLSLRFFAYWGQGTLVTVSA
VL: DIVMTQSPSSLTVTAGEKVTMSCKSSQSLLNSGNQKNYLTWYQQKPGQAPKLLIYWASTRESGVPDRFIGSGSGTDFTLTISHVQAEDLAVYFCQNDYSYPLTFGAGTNLELK
notes: Chimeric; also called 44C6
For B1, the FACS reading is 2260 in assay [1]; 81100 in assay [4]; 732 in [5]; 38000 in assay [6]; 92700 in assay [8]; 4770 in assay [9]. Moreover, the FACS reading in [10] was determined as 12600; in assay [11], 113000. The half-maximal effective concentration (EC50) in [2] was 0.417 µg/mL. Further, in assay [2], the max was 113000. Besides, the “CLDN18.2/CLDN18.1 (MFI ratio)” value in assay [3] was 381. This molecule also had an MFI in assay [7] of 439000.

B2: QP14451440 (antibody, human IgG1, kappa, V domains shown)
VH: QVQLVQSGAEVKKPGASVKVSCKASGYAFSSYWMNWVRQAPGQGLEWIGQIYPGNGDTTYNGKFKGRVTMTADKSTSTVYMELSSLRSEDTAVYFCARFVKGNAMDYWGQGTLVTVSS
VL: DIVMTQSPDSLAVSLGERATISCKSSQSLLNSGNQKNYLTWYQQKPGQPPKLLIYWASTRESGVPDRFSGSGSGTDFTLTISSLQAEDVAVYYCQNAYSYPFTFGQGTKLEIKR
notes: Humanized from QP192193; also called QP14401445
In the case of B2, in assay [3], the “CLDN18.2/CLDN18.1 (MFI ratio)” value amounted to 470. This molecule also registered an FACS reading in assay [12] of 104000. The same molecule returned an FACS reading in assay [13] of 13800. For the same molecule, in assay [14], the FACS reading was found to be 123000. Besides, in assay [15], the FACS reading was found to be 4930. Moreover, in assay [16], the “EC50 of killing, ADCC (PBMC, HEK293-CLDN18.2 cells)” value was 0.0082 µg/mL; the “Killing percentage, ADCC (PBMC, HEK293-CLDN18.2 cells), 0 µg/ml” value amounted to 5.43%; the “Killing percentage, ADCC (PBMC, HEK293-CLDN18.2 cells), 0.0001024 µg/ml” value was -1.11%; the “Killing percentage, ADCC (PBMC, HEK293-CLDN18.2 cells), 0.000512 µg/ml” value came to 10%. In [16], the “Killing percentage, ADCC (PBMC, HEK293-CLDN18.2 cells), 0.00256 µg/ml” value was 10.8%; the “Killing percentage, ADCC (PBMC, HEK293-CLDN18.2 cells), 0.0128 µg/ml” value came out at 28.5%; the “Killing percentage, ADCC (PBMC, HEK293-CLDN18.2 cells), 0.064 µg/ml” value was found to be 42.1%; the “Killing percentage, ADCC (PBMC, HEK293-CLDN18.2 cells), 0.32 µg/ml” value was found to be 43.7%. Also, in [16], the “Killing percentage, ADCC (PBMC, HEK293-CLDN18.2 cells), 1.6 µg/ml” value turned out to be 37.8%; the “Killing percentage, ADCC (PBMC, HEK293-CLDN18.2 cells), 8 µg/ml” value is 42.7%; the “Killing percentage, ADCC (PBMC, HEK293-CLDN18.2 cells), 40 µg/ml” value is 47.8%. The FACS reading in assay [17] turned out to be 169000. Also, the MFI in [7] amounted to 620000. The molecule also had an FACS reading in assay [18] of 35400. In addition, in assay [19], the 50% effective concentration (EC50) worked out at 0.223 µg/mL and the max was 169000. Further, in assay [20], the FACS reading is 139000. In assay [21], this molecule displayed an FACS reading of 732.

B3: QP14581454 (antibody, human IgG1, kappa, V domains shown)
VH: QVQLVQSGAEVKKPGASVKVSCKASGYTFTNYFVHWVKQAPGQGLEWIGYINPYNDDTKYNEKFKGKATLTRDTSTSTVYMELSSLRSEDTAVYYCLSLRFFAYWGQGTLVTVSS
VL: B2 VL with P49A, L84V, Y93F, A97D, F102L, Q106G, L110V
notes: Humanized from QP201202
As for B3, the FACS reading in assay [1] amounted to 2370; in assay [4] it was 73700; in assay [5] it was 732; in assay [6], 30800; in assay [8], 56100; in assay [9], 4470. Further, the figures for the FACS reading in [10] and in assay [11] were 11500 and 58600, respectively. In [2], the midpoint of the response, the EC50, lay at 0.363 µg/mL. The molecule further registered a max in assay [2] of 73700. Besides, the “CLDN18.2/CLDN18.1 (MFI ratio)” value in assay [3] amounted to 506. In assay [7], this molecule gave an MFI of 502000.

B4: QP14451442 (antibody, human IgG1, kappa, V domains shown)
VH: B2 VH
VL: B2 VL with L52M, T75I, L84V
notes: Humanized from QP192193
With B4, the “CLDN18.2/CLDN18.1 (MFI ratio)” value in assay [3] was found to be 463. Further, the FACS reading in [12] was 82300; in [13], 11100; in assay [14], 137000; in assay [15] it was 4790; in assay [17], 177000; in assay [18] it was 29800. The FACS reading in [20] worked out at 138000; in assay [21] it was 732. In assay [7], the MFI was 653000. Moreover, in [19], the half-maximal effective concentration (EC50) was 0.344 µg/mL. Besides, in [19], the max is 177000.

B5: QP192193 (antibody, human IgG1, V domains shown)
VH: QVQLQQSGAELVRPGSSVKISCKASGYAFSSYWMNWVKQRPGQGLEWIGQIYPGNGDTTYNGKFKGQATLTADKSSSTVYMQLSSLTSEDSAVYFCARFVKGNAMDYWGQGTSVTVSS
VL: DIVMTQSPSSLTVTAGEKVTMSCKSSQSLLNSGNQKNYLTWYQQNPGQPPKMLIYWASTRESGVPDRFTGSGSGIDFSLTISSVQAEDLALYYCQNAYSYPFTFGSGTKLEIK
notes: Chimeric; also called 40F1; mouse-derived chimeric antibody QP192193
In the case of B5, the “CLDN18.2/CLDN18.1 (MFI ratio)” value in assay [3] worked out at 627. The FACS reading in assay [12] came out at 74600; in assay [13], 11400; in assay [14] it was 168000; in [15] it was 3790; in assay [17] it was 155000; in [18], 27800. The FACS reading in assay [20] is 177000; in assay [21], 732. Moreover, the MFI in assay [7] was 644000. This molecule also had an EC50 in assay [19] of 0.361 µg/mL. In assay [19], this molecule showed a max of 177000.

In general, EC50 refers to the concentration needed to bring the measured effect to its halfway point. Low readings indicate greater potency, high ones weaker potency.
